Like-named read-outs stand apart in the source and are kept apart here.
Legend:
Experiment in all cases: ITC
[1] = target: EftM^HM4 W196F (Pseudomonas aeruginosa strain PAHM4)
[2] = target: EftM^HM4 W170F (Pseudomonas aeruginosa strain PAHM4)
[3] = target: EF-Tu methyltransferase EftM from P. aeruginosa strain PAHM4 (EftM^HM4), wild-type (Pseudomonas aeruginosa strain PAHM4)
[4] = target: EF-Tu methyltransferase EftM from P. aeruginosa strain PAHM4 (EftM^HM4), wild-type (Pseudomonas aeruginosa strain PAHM4); remark: listed apart in the source

translation elongation factor EF-Tu of P. aeruginosa PAO1 (tufB), wild-type (from UniProt P09591 1-397) (natural protein)
fold decrease of dH against wild-type EftM^HM4 [1]: > 10 fold | fold decrease of dH against wild-type EftM^HM4 [2]: > 10 fold | Kd [3]: 28 µM | Kd [4]: 27 µM
